± gives the uncertainty stated by the source.
Assay: amyloid nucleation score (Sup35N fusion, yeast selection) (log enrichment); library NNK3; higher = more nucleation; inactive = no reads after selection
In short: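 Output and input plasmid inserts were sequenced by Illumina after psi-negative yeast carrying Sup35N fused to peptides of 20 random codons had been induced 24 hours with 100 μM copper sulfate and grown 7 days at 30°C on medium lacking adenine and uracil. The nucleation score is the DiMSum log enrichment of output over input reads, centred on the mode score of non-aggregating sequences. Sequences with under 100 input reads were excluded.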

| Substance | amyloid nucleation score |
| --- | --- |
| VTVCRHTPILIKKPM | inactive |
| VTWAAMWASRRVIQVITLRL | inactive |
| VVASDNSTMVENWSFNGKMS | inactive |
| VVCFFYNVF | 2.36 ± 0.055 |
| VVCIHLVVDTVC | inactive |
| VVCLFDVKFESARVLDLLSV | inactive |
| VVGLWTNS | inactive |
| VVIFFRIQRVTCVWNVLL | inactive |
| VVLMALVQVYFTSGGMFIKD | inactive |
| VVLNWNTNGY | 0.669 ± 0.15 |
| VVMFSTPDIVDILSHVYRLG | inactive |
| VVNRHGYLAMLK | inactive |
| VVRFLDQKMYVVGLLSGS | inactive |
| VVVCNRIVNSSEFRCSYTRK | 1.73 ± 0.09 |
| VVVKKSVVDAWSAYYFRLFV | inactive |
| VWGYSMYVLQIWERYSSNV | 1.01 ± 0.13 |
| VWIRRTCDFNQYRESDLLIR | inactive |
| VWNVQSFQ | inactive |
| VWRAWAINGTATWCLIGDHG | inactive |
| VWRSNF | inactive |
| VWSVHSHTQPMHSWSVRSAG | inactive |
| VWTGHCMASFVRFTCSVVDD | inactive |
| VWVSVWVVLTAV | inactive |

| Substance | amyloid nucleation score |
| --- | --- |
| VWVVV | inactive |
| VYAVIDWRDLCF | inactive |
| VYCLAECYRIMRYAPFQVV | inactive |
| VYDDSTIDT | inactive |
| VYDVSQVGLSRSSFFGAVQA | inactive |
| VYECFSSWTWSWVCQCQAVF | inactive |
| VYFENSGFTTVTREACLY | inactive |
| VYFHSGSARFNTGTQL | inactive |
| VYFRFYNL | 1.36 ± 0.073 |
| VYGLMIIWVIVLYPV | inactive |
| VYPWFA | inactive |
| VYRLEVDISTILEGWSG | inactive |
| VYRLFRMYILTGGLNVNGGR | inactive |
| VYSSVEFCISEKTHLKVWVL | inactive |
| VYTRSGHV | -0.112 ± 1.3 |
| VYVSYGTFWMSKVWWCDKPG | inactive |
| VYYVNS | 0.492 ± 0.18 |
| WAFSVKKWRTVLRKCILQWG | inactive |
| WAPLQALSFGK | inactive |
| WAVCKAHDVSVDTDYYSSTG | 0.302 ± 0.45 |
| WCAWAVTCLTGVISRPLHES | 0.042 ± 0.43 |
| WCESDVMDFGSYFADFLS | inactive |
| WCFWNSC | inactive |

| Substance | amyloid nucleation score |
| --- | --- |
| WCGVSLVL | inactive |
| WCLSCVLTNIRVRIPNRTVV | inactive |
| WCMFMMSNWRVRPADLFCIS | inactive |
| WCNVRYLVDMRFFTTVGVKL | inactive |
| WDSWESYFASHHSF | inactive |
| WEFAGVVYEWGVWKSVSGYG | 0.336 ± 0.3 |
| WEHLGETYGVFMSTEDRESG | inactive |
| WELMCKALGRGRRCWYKCFL | inactive |
| WEWVRPFFLLGYAPEPNITI | 0.232 ± 0.48 |
| WFSSKRDLR | inactive |
| WFVQLSRMWFYANGNCPV | inactive |
| WFYVIGTVMWYSLNAGYYMW | inactive |
| WGDIEVFFSYVVYLSIWRES | inactive |
| WGGSVRYKVSRICLGQCERE | inactive |
| WGILW | 0.482 ± 0.15 |
| WGLMIWSWPYMFCTLLPASR | inactive |
| WGRGLRPTLVGMFARAHRGA | inactive |
| WGWPSFTCTWLCRRSSCRWP | inactive |
| WHIEVC | inactive |
| WHSKWVWNHNWLGSINCRYE | inactive |
| WIDRQLKRGL | inactive |
| WIGMYSGETAFLSLPVTQQI | inactive |
| WIHRMLSSGVDSPRNTSLWT | inactive |

| Substance | amyloid nucleation score |
| --- | --- |
| WIHSGSSHWLNACDRMDMTK | -0.753 ± 1.3 |
| WIIEGSRLRC | inactive |
| WILLGNGSMNMKSCFMLLFV | inactive |
| WIMPLDQ | inactive |
| WINGTISDC | inactive |
| WIPHPEFGVSIGIV | inactive |
| WIVKL | inactive |
| WKATNNAASVFGDLYGYYAN | inactive |
| WKDWKLRPNY | inactive |
| WKLASVFAVSMR | inactive |
| WKTRHRVEVWASFLLSYQTG | -0.551 ± 0.62 |
| WLARTRRVVLRNLVLAVTCI | inactive |
| WLDWSAGHCGYVKLLW | inactive |
| WLFNYRILCLSVMWFTKSIE | inactive |
| WLLENVPGITLAFV | inactive |
| WLLFDPVGVVKQSLVARNSY | inactive |
| WLNYCNCV | 1.91 ± 0.078 |
| WLPPRVMLFTPLRQWLYR | inactive |
| WLQISIEKTTKFPSKMNH | 1.58 ± 0.11 |
| WLRLSL | inactive |
| WLVFITPYLSLSCLSLINKI | inactive |
| WLVSRIVHSLVVVIFDKDEG | inactive |
| WMFRSAVFYGYVYALGCMRS | 0.924 ± 0.22 |

| Substance | amyloid nucleation score |
| --- | --- |
| WMPQFCLRCSSVV | inactive |
| WNGKGLSSGTLSISRKT | inactive |
| WNMNYVQFDGNVLVNAD | inactive |
| WNMVYFLLQFSIDASLGT | inactive |
| WNNRWVCNLSTSSGMNLLDR | inactive |
| WNPCVHTLGI | inactive |
| WNSLMAK | inactive |
| WPFHWSFSFVISMYMSWGNS | inactive |
| WPGLRCDSGQDKRNMF | -0.039 ± 1 |
| WPKLVGCYRGSKGINGRVLY | inactive |
| WQPDTVKGEVLLRVGTMLSV | inactive |
| WQRNFEWIYDPLRAKSWNSI | -0.558 ± 0.76 |
| WQSRTKP | inactive |
| WQVVGYKNLDLCVNLATTDW | inactive |
| WRFGRVFDWGRLHLGVDRCR | inactive |
| WRGYPFAPVFYLI | inactive |
| WRKTSVMFADSGIV | inactive |
| WSDIIVGIRTNCDVLFSGAY | inactive |
| WSDLRI | inactive |
| WSFQLSVLFVCNLITYNCV | 1.68 ± 0.069 |
| WSIRMW | inactive |
| WSNTFVWLSINLSYIV | inactive |
| WSPWHENWGLGMLQLKTSLW | inactive |

| Substance | amyloid nucleation score |
| --- | --- |
| WSSSW | inactive |
| WSSTRLPSMSPCGFIHQGYI | inactive |
| WSTPWMWVRFGRIDHCSLGV | inactive |
| WSVSTQFPCFMSGSIGYNMS | inactive |
| WSYIVLTVLTWVACCTFWFV | -0.436 ± 0.49 |
| WTKSFSSNSTQVSQYYSFNL | inactive |
| WTLARFTSD | inactive |
| WTMSKLNGRCTSCPHLARLS | inactive |
| WTNIRFAF | inactive |
| WTRNTKLVEIIKMYYQNVNL | inactive |
| WVDGYFNLTENVPAVVGK | inactive |
| WVFVRMMVELINMTAAFAVS | inactive |
| WVHFYDTMGDM | inactive |
| WVHRIAS | inactive |
| WVIACVMRYVVFKNKVMIVR | inactive |
| WVIIIYRYLFRNISAKQSRL | inactive |
| WVKPSSFWGFERNTYDIYIG | -0.176 ± 0.62 |
| WVNFRSPFLNGANA | -0.686 ± 0.68 |
| WVNTGNQRLYRQTCCGTLVR | inactive |
| WVRRYV | inactive |
| WVTYWASRVFE | inactive |
| WVWRSNSPGAEKWTLLTKTL | inactive |
| WVYDSTIRHHH | inactive |

| Substance | amyloid nucleation score |
| --- | --- |
| WWADA | inactive |
| WWKSLLTRWRCLPPRK | -0.307 ± 0.62 |
| WWSKRLKRLVNCGLR | inactive |
| WYGDNRGIMYVLGSRINWRY | 1.34 ± 0.087 |
| WYHGKWYLDLNYVVPVTQWK | inactive |
| WYHSQNVINCRQSVVTMKHN | inactive |
| WYRYSGGYNWP | 0.396 ± 0.29 |
| WYYCRLRACVRH | inactive |
| YAAEYYVVQVIG | inactive |
| YAAIPQIVINVLVGGTNASC | 2.1 ± 0.069 |
| YAATRW | inactive |
| YAFKVCS | inactive |
| YALIQIPKYRLGCRGWTMRG | 0.172 ± 0.27 |
| YALSVLVSRYQWSGWHYLYP | inactive |
| YAWGYSSWETRN | inactive |
| YCAYLLRSLWLGTAWEWWRQ | inactive |
| YCCAKL | inactive |
| YCFNLFRSARRGDGCAMIGC | inactive |
| YCGKCRAFCCQSCPIRVRLV | inactive |
| YCHILTLATVMKPTFERAPS | inactive |
| YCSVLELKSYLTLSLSKWKW | inactive |
| YCTWAYRVYSYSGCTMMIVL | inactive |
| YCYRYGWYHMNEDRIWDVRL | inactive |
